# B1: C25 (C37-L3-C36) (bispecific antibody)
# chain: EVQLVESGGGLVQPGESLTLSCVVAGSIFSFAMSWYRQAPGKERELVARIGSDDRVTYADSVKGRFTISRDNIKRTAGLQMNSLKPEDTAVYYCNAQTDLRDWTVREYWGQGTQVTVSSGGGGSGGGGSGGGGSGGGGSQVQLQESGGGSVEAGGSLRLSCARSGWPYSTYSMNWFRQAPGKEREAVAGISSTMSGIIFAESKAGQFTISQDNAKNTVYLQMNNLKPEDTAIYYCAARRYFSLSSSSDDFDYWGQGTQVTVSSAAAYPYDVPDYGSSPSTPPTPSPSTPPHHHHHH
# notes: also called C25 (TYR); non-covalent construct C25
# B2: C27 (bispecific antibody)
# chain: EVQLVESGGGPVQAGGSLRLSCAASGRTYRGYSMGWFRQAPGKEREFVAAIVWSGGNTYYEDSVKGRFTISRDNAKNTMYLQMTSLKPEDSATYYCAAKIRPYIFKIAGQYDYWGQGTLVTVSSGGGGSGGGGSGGGGSGGGGSQVQLQESGGGSVEAGGSLRLSCARSGWPYSTYSMNWFRQAPGKEREAVAGISSTMSGIIFAESKAGQFTISQDNAKNTVYLQMNNLKPEDTAIYYCAARRXFSLSSSSDDFDYWGQGTQVTVSSAAAYPYDVPDYGSSPSTPPTPSPSTPPHHHHHH
# modifications: FSY (fluorosulfonyltyrosine) at the position printed X in SEQ ID NO: 42 (position 101 of the anti-PSMA sdAb domain)
# B3: C26 (bispecific antibody)
# chain: EVQLVESGGGPVQAGGSLRLSCAASGRTYRGYSMGWFRQAPGKEREFVAAIVWSGGNTYYEDSVKGRFTISRDNAKNTMYLQMTSLKPEDSATYYCAAKIRPYIFKIAGQYDYWGQGTLVTVSSGGGGSGGGGSGGGGSGGGGSQVQLQESGGGSVEAGGSLRLSCARSGWPYSTYSMNWFRQAPGKEREAVAGISSTMSGIIFAESKAGQFTISQDNAKNTVYLQMNNLKPEDTAIYYCAARRYFSLSSSSDDFDYWGQGTQVTVSSAAAYPYDVPDYGSSPSTPPTPSPSTPPHHHHHH
# B4: C30 (bispecific antibody)
# chain: EVQLVESGGGLVQPGGSLRLSCVASGDVHKINFLGWYRQAPGKEREKVAHISIGDQTDYADSAKGRFTISRDESKNMVYLQMNSLKPEDTAVYFCRAFSRIYPYDYWGQGTLVTVSSGGGGSGGGGSGGGGSGGGGSQVQLQESGGGSVEAGGSLRLSCARSGWPYSTYSMNWFRQAPGKEREAVAGISSTMSGIIFAESKAGQFTISQDNAKNTVYLQMNNLKPEDTAIYYCAARRXFSLSSSSDDFDYWGQGTQVTVSSAAAYPYDVPDYGSSPSTPPTPSPSTPPHHHHHH
# modifications: FSY (fluorosulfonyltyrosine) at the position printed X in SEQ ID NO: 45 (position 101 of the anti-PSMA sdAb domain)
# B5: C29 (bispecific antibody)
# chain: EVQLVESGGGLVQPGGSLRLSCVASGDVHKINFLGWYRQAPGKEREKVAHISIGDQTDYADSAKGRFTISRDESKNMVYLQMNSLKPEDTAVYFCRAFSRIYPYDYWGQGTLVTVSSGGGGSGGGGSGGGGSGGGGSQVQLQESGGGSVEAGGSLRLSCARSGWPYSTYSMNWFRQAPGKEREAVAGISSTMSGIIFAESKAGQFTISQDNAKNTVYLQMNNLKPEDTAIYYCAARRYFSLSSSSDDFDYWGQGTQVTVSSAAAYPYDVPDYGSSPSTPPTPSPSTPPHHHHHH
# B6: C34 (bispecific antibody)
# chain: QVQLQESGGGSVEAGGSLRLSCARSGWPYSTYSMNWFRQAPGKEREAVAGISSTMSGIIFAESKAGQFTISQDNAKNTVYLQMNNLKPEDTAIYYCAARRXFSLSSSSDDFDYWGQGTQVTVSSGGGGSGGGGSGGGGSGGGGSEVQLVESGGGLVQPGGSLRLSCVASGDVHKINFLGWYRQAPGKEREKVAHISIGDQTDYADSAKGRFTISRDESKNMVYLQMNSLKPEDTAVYFCRAFSRIYPYDYWGQGTLVTVSSAAAYPYDVPDYGSSPSTPPTPSPSTPPHHHHHH
# modifications: FSY (fluorosulfonyltyrosine) at the position printed X in SEQ ID NO: 49 (position 101 of the anti-PSMA sdAb domain)
# B7: C33 (bispecific antibody)
# chain: QVQLQESGGGSVEAGGSLRLSCARSGWPYSTYSMNWFRQAPGKEREAVAGISSTMSGIIFAESKAGQFTISQDNAKNTVYLQMNNLKPEDTAIYYCAARRYFSLSSSSDDFDYWGQGTQVTVSSGGGGSGGGGSGGGGSGGGGSEVQLVESGGGLVQPGGSLRLSCVASGDVHKINFLGWYRQAPGKEREKVAHISIGDQTDYADSAKGRFTISRDESKNMVYLQMNSLKPEDTAVYFCRAFSRIYPYDYWGQGTLVTVSSAAAYPYDVPDYGSSPSTPPTPSPSTPPHHHHHH
# B8: C28 (bispecific antibody)
# chain: EVQLVESGGGLVQPGGSLRLSCAASGDIYKSFDMGWYRQAPGKQRDLVAVIGSRGNNRGRTNYADSVKGRFTISRDGTGNTVYLLMNKLRPEDTAIYYCNTAPLVAGRPWGRGTLVTVSSGGGGSGGGGSGGGGSGGGGSQVQLQESGGGSVEAGGSLRLSCARSGWPYSTYSMNWFRQAPGKEREAVAGISSTMSGIIFAESKAGQFTISQDNAKNTVYLQMNNLKPEDTAIYYCAARRYFSLSSSSDDFDYWGQGTQVTVSSAAAYPYDVPDYGSSPSTPPTPSPSTPPHHHHHH
# B9: C31 (bispecific antibody)
# chain: QVQLQESGGGSVEAGGSLRLSCARSGWPYSTYSMNWFRQAPGKEREAVAGISSTMSGIIFAESKAGQFTISQDNAKNTVYLQMNNLKPEDTAIYYCAARRYFSLSSSSDDFDYWGQGTQVTVSSGGGGSGGGGSGGGGSGGGGSEVQLVESGGGPVQAGGSLRLSCAASGRTYRGYSMGWFRQAPGKEREFVAAIVWSGGNTYYEDSVKGRFTISRDNAKNTMYLQMTSLKPEDSATYYCAAKIRPYIFKIAGQYDYWGQGTLVTVSSAAAYPYDVPDYGSSPSTPPTPSPSTPPHHHHHH
# B10: C32 (bispecific antibody)
# chain: QVQLQESGGGSVEAGGSLRLSCARSGWPYSTYSMNWFRQAPGKEREAVAGISSTMSGIIFAESKAGQFTISQDNAKNTVYLQMNNLKPEDTAIYYCAARRYFSLSSSSDDFDYWGQGTQVTVSSGGGGSGGGGSGGGGSGGGGSEVQLVESGGGLVQPGGSLRLSCAASGDIYKSFDMGWYRQAPGKQRDLVAVIGSRGNNRGRTNYADSVKGRFTISRDGTGNTVYLLMNKLRPEDTAIYYCNTAPLVAGRPWGRGTLVTVSSAAAYPYDVPDYGSSPSTPPTPSPSTPPHHHHHH
# B11: C37 (anti-CD16a sdAb) (VHH)
# VHH: EVQLVESGGGLVQPGESLTLSCVVAGSIFSFAMSWYRQAPGKERELVARIGSDDRVTYADSVKGRFTISRDNIKRTAGLQMNSLKPEDTAVYYCNAQTDLRDWTVREYWGQGTQVTVSS
# notes: also called CD16a sdAb domain alone; monospecific anti-CD16a sdAb
# What was measured:
# [1] = biological target: T1, PSMA expressed on target cells (PC3pip cells, high density; 22Rv1 cells, low density) (UniProt Q04609 1-750, limits assumed); experiment: cell-based or functional assay
# [2] = biological target: T1, PSMA expressed on target cells (PC3pip …); experiment: cell-based or functional assay; remark: listed apart in the source
# [3] = biological target: T1, PSMA expressed on target cells (PC3pip …); experiment: cell-based or functional assay; remark: listed apart in the source
# [4] = biological target: T1, PSMA expressed on target cells (PC3pip …); experiment: cell-based or functional assay; remark: listed apart in the source
# [5] = biological target: T1, PSMA expressed on target cells (PC3pip …); experiment: cell-based or functional assay; remark: listed apart in the source
# [6] = biological target: T1, PSMA expressed on target cells (PC3pip …); experiment: cell-based or functional assay; remark: listed apart in the source
# [7] = biological target: T2, biotin-labeled CD16a (Acro P/N CDA-H82E8) (human, UniProt P08637 17-208, biotin-labeled (site not stated)); experiment: BLI, biotin-labeled CD16a on streptavidin biosensors, pH 7.4
# T2 construct: also called recombinant human CD16a; immobilized CD16a
# [8] = biological target: T3, Biotinylated his-tagged human PSMA (human, UniProt Q04609 44-750, limits assumed, biotinylated (site not stated)); experiment: BLI, biotinylated his-tagged human PSMA on streptavidin sensors, pH 5.7
# T3 construct: also called immobilized PSMA; not shown: his tag
# [9] = biological target: T3, Biotinylated his-tagged human PSMA; experiment: BLI, biotinylated his-tagged human PSMA on streptavidin sensors, pH 7.4
# [10] = biological target: T1, PSMA expressed on target cells (PC3pip …); experiment: cell-based or functional assay; remark: listed apart in the source
# [11] = biological target: T2, biotin-labeled CD16a (Acro P/N …); experiment: BLI (Octet), biotin-CD16a on streptavidin sensors, dilutions from 200 nM to 3.125 nM
# T2 sequence (P08637 17-208 limits assumed): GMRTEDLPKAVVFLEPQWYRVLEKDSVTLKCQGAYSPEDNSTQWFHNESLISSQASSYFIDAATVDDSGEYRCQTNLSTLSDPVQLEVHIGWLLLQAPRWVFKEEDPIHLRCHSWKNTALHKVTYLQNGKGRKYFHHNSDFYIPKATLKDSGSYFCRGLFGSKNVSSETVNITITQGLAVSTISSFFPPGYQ
# T1 sequence (Q04609 whole entry): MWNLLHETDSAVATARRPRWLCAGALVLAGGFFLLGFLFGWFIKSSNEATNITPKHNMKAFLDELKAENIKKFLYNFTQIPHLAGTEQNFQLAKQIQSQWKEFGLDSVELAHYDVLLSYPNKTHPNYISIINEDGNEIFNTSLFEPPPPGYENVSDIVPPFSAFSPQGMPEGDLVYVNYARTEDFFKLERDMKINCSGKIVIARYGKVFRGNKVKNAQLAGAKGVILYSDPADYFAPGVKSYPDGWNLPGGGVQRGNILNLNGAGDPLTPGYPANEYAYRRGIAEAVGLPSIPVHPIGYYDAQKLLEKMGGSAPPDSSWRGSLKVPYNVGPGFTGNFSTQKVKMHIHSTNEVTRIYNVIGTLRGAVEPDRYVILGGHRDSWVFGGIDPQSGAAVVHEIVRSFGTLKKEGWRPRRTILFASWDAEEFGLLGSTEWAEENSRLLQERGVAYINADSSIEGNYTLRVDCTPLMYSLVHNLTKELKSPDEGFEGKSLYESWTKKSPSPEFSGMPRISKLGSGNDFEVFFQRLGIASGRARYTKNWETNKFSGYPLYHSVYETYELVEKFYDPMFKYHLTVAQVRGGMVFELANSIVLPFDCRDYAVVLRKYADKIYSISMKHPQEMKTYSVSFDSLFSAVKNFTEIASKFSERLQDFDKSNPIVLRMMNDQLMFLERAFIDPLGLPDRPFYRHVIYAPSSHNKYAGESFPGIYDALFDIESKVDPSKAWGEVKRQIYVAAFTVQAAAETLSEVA
# T3 sequence (Q04609 44-750 limits assumed): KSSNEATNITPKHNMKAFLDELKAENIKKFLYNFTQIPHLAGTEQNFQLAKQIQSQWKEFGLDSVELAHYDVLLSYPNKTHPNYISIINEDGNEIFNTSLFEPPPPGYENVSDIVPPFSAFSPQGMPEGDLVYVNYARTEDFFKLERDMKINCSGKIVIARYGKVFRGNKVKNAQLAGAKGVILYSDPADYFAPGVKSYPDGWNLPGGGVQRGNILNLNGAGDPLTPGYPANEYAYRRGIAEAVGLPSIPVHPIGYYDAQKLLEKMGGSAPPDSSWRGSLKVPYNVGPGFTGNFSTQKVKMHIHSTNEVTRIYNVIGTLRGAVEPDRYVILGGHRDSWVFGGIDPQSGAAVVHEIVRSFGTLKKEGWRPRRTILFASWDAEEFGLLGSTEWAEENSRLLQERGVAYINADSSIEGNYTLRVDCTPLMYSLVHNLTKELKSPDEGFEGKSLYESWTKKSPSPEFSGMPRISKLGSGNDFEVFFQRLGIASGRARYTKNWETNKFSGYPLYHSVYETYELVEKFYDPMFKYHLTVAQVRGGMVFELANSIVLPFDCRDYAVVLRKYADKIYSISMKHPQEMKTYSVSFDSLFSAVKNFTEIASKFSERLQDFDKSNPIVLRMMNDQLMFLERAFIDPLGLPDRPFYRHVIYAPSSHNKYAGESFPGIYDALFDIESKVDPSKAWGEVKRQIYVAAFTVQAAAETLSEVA
binder,measurement,setting,value
B1,"EC50; ADCC luciferase reporter assay (Jurkat CD16a V158 reporter cells), PC3pip 24 h continuous",[1],9.2 nM
same,"EC50; ADCC reporter assay, PC3pip 4 h washout, 24 h endpoint",[2],0.141 nM
same,"EC50; ADCC reporter assay, 22Rv1 24 h continual",[3],12.1 nM
same,"EC50; ADCC reporter assay, 22Rv1 4 h washout, 24 h endpoint",[4],62.6 nM
same,"EC50 [nM]; primary human NK cell-mediated killing of PC3pip cells, no washout, 20 h incubation",[5],7.02 nM
same,"EC50 [nM]; NK cell-mediated killing of PC3pip cells, 5 h washout, 20 h incubation",[6],26.2 nM
same,Kd,[7],1.11 nM
same,koff,[7],0.000152 s⁻¹
same,kon,[7],137000 M⁻¹ s⁻¹
same,Kd,[8],1570 nM
same,koff,[8],0.0483 s⁻¹
same,kon,[8],30800 M⁻¹ s⁻¹
same,Kd,[9],1160 nM
same,koff,[9],0.03 s⁻¹
same,kon,[9],25900 M⁻¹ s⁻¹
B2,"EC50; T-cell luciferase reporter assay with PC3pip target cells, 6 hr",[10],0.59 nM
same,"fold efficacy against the commercial CD3-PSMA bispecific antibody; T-cell luciferase reporter assay, PC3pip",[10],1.2 fold
same,"fold potency against C26; T-cell luciferase reporter assay, PC3pip",[10],12.7 fold
same,"fold potency against the commercial CD3-PSMA bispecific antibody; T-cell luciferase reporter assay, PC3pip",[10],1.4 fold
B3,"EC50; T-cell luciferase reporter assay with PC3pip target cells, 6 hr",[10],7.4 nM
B4,"EC50; T-cell luciferase reporter assay with PC3pip target cells, 6 hr",[10],0.51 nM
same,"fold potency against C29; T-cell luciferase reporter assay, PC3pip",[10],11.8 fold
same,"fold potency against the commercial CD3-PSMA bispecific antibody; T-cell luciferase reporter assay, PC3pip",[10],1.6 fold
B5,"EC50; T-cell luciferase reporter assay with PC3pip target cells, 6 hr",[10],5.98 nM
B6,"EC50; T-cell luciferase reporter assay with PC3pip target cells, 6 hr",[10],1.42 nM
same,"fold potency against C33; T-cell luciferase reporter assay, PC3pip",[10],21.9 fold
B7,"EC50; T-cell luciferase reporter assay with PC3pip target cells, 6 hr",[10],31.1 nM
B8,"EC50; T-cell luciferase reporter assay with PC3pip target cells, 6 hr",[10],14.8 nM
B9,"EC50; T-cell luciferase reporter assay with PC3pip target cells, 6 hr",[10],5.33 nM
B10,"EC50; T-cell luciferase reporter assay with PC3pip target cells, 6 hr",[10],1.42 nM
B11,binding result,[11],binds

# Source: patent US20250353926A1 (ENLAZA THERAPEUTICS, published 2025)
